The target in this experiment is phosphorylated extracellular regulated kinase 2 (pERK2) (UniProt P28482 1-360, phosphorylated (sites not given)). Put plainly: SPR. A general note: Surface plasmon resonance follows binding to a sensor surface in real time, without labels.
Chain of phosphorylated extracellular regulated kinase 2 (pERK2) (P28482 whole entry): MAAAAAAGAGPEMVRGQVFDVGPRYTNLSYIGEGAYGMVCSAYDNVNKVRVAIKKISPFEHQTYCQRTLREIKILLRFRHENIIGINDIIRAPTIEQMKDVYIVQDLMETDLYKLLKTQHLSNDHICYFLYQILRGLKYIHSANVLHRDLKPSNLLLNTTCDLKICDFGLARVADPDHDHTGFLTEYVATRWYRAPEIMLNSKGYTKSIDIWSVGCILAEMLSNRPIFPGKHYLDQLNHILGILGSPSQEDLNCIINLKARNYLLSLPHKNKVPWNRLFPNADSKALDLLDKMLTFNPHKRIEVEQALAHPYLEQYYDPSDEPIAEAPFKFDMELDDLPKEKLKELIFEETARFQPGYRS

B1: synthetic DARPin pE59 (designed binder)
chain: GGGGGSDLGKKLLEAARAGQDDEVRILXANGADVNALDEDGLTPLHLAAQLGHLEIVEVLLKYGADVNAEDNFGITPLHLAAIRGHLEIVEVLLKHGADVNAQDKFGKTAFDISIDNGNEDLAEILQKLN
modifications: norleucine (Nle) at 28 in place of Met; C-terminal carboxamide (CONH2) at 130Asn
For the molecule B1, the Kd is 190 nM.

One may read the Kd as a measure of binding affinity in units of concentration. Low values mean higher affinity, high ones lower affinity.

The values above are taken from paper PMC4045705 (Chembiochem : a European journal of chemical biology, 2014).
